Assay results: the RNAGym collection of RNA variant scans (doi:10.1093/molbev/msab373)

B1: Azoarcus group I ribozyme (parent)
chain: GUGCCUUGCGCCGGGAAACCACGCAAGGGAUGGUGUCAAAUUCGGCGAAACCUAAGCGCCCGCCCGGGCGUAUGGCAACGCCGAGCCAAGCUUCGGCGCCUGCGCCGAUGAAGGUGUAGAGACUAGACGGCACCCACCUAAGGCAAACGCUAUGGUGAAGGCAUAGUCCAGGGAGUGGCGAAAGUCACACAAACCGG

Variants of: B1
Experiment: reverse-splicing fitness (ratio to wild type); higher = more active; in vitro selection; Mg2+ level not given
Method in brief: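 An in vitro group I ribozyme library with randomized positions was T7-transcribed and gel-purified. In triplicate, 10 pmol RNA in EPPS pH 7.5 was reacted with 50 pmoles of a 30-nt RNA substrate for 1 h at 37 °C across several added MgCl2 levels (1–48 mM), then stopped with EDTA. Products were reverse transcribed from a substrate-complementary primer, PCR-amplified and sequenced (HiSeq 4000). Fitness is a variant's read proportion after selection over that before, normalised to wild type.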

Row | Variant | reverse-splicing fitness
1 | C82A A111C A120C C150G C169A U176G | 0.00778
2 | C82A A111C A120C C150G C169A U176A | 0.00991
3 | C82A A111C A120C C150G C169A U176C | 0.0121
4 | C82A A111C A120C A145C C150G C169A U176G | 0.00767
5 | C82A A111C A120C A145C C150G C169A U176A | 0.00949
6 | C82A A111C A120C A145C C150G C169A U176C | 0.00798
7 | C82A A111C A120C C150A C169A | 0.0111
8 | C82A A111C A120C C150A C169G | 0.00949
9 | C82A A111C A120C C150A C169U | 0.0133
10 | C82A A111C A120G A145G C150A C169G | 0.00887
11 | C82A A111C A120G A145G C150A C169U | 0.00923
12 | C82A A111C A120G A145G C150A C169A | 0.0099
13 | C82A A111C A120C A145U U176C | 0.0164
14 | C82A A111C A120C A145U U176G | 0.00692
15 | C82A A111C A120C A145U U176A | 0.0147
16 | C82A A111C A120C A145U C150G C169U U176A | 0.00763
17 | C82A A111C A120C A145U C150G C169U U176C | 0.0101
18 | C82A A111C A120C A145U C150G C169U U176G | 0.00684
19 | C82A A111C A120C A145C C150G C169G U176C | 0.0101
20 | C82A A111C A120C A145C C150G C169G U176A | 0.00867
21 | C82A A111C A120C A145C C150G C169G U176G | 0.00702

Row | Variant | reverse-splicing fitness
22 | C82A A111C A120C A145U C150G C169G U176C | 0.00621
23 | C82A A111C A120C A145U C150G C169G U176A | 0.00819
24 | C82A A111C A120C A145U C150G C169G U176G | 0.00725
25 | C82A A111C A120C A145U C150U C169U U176C | 0.0133
26 | C82A A111C A120C A145U C150U C169U U176G | 0.00824
27 | C82A A111C A120C A145U C150U C169U U176A | 0.0135
28 | C82A A111C A120G A145C C150U C169U | 0.00644
29 | C82A A111C A120G A145C C150U C169G | 0.00775
30 | C82A A111C A120G A145C C150U C169A | 0.00801
31 | C82A A111C A120C C150U U176C | 0.0187
32 | C82A A111C A120C C150U U176G | 0.0074
33 | C82A A111C A120C C150U U176A | 0.0123
34 | C82A A111C A120C A145U C150A C169G U176A | 0.0154
35 | C82A A111C A120C A145U C150A C169G U176C | 0.0188
36 | C82A A111C A120C A145U C150A C169G U176G | 0.00745
37 | C82A A111C A120C A145G C150G C169U U176A | 0.0109
38 | C82A A111C A120C A145G C150G C169U U176G | 0.00808
39 | C82A A111C A120C A145G C150G C169U U176C | 0.0109
40 | C82A A111C A120C A145C C150A C169U | 0.0105
41 | C82A A111C A120C A145C C150A C169A | 0.00755
42 | C82A A111C A120C A145C C150A C169G | 0.00813

Row | Variant | reverse-splicing fitness
43 | C82A A111C A120C A145U C169A | 0.00864
44 | C82A A111C A120C A145U C169G | 0.0102
45 | C82A A111C A120C A145U C169U | 0.0133
46 | C82A A111C A120C A145G C150G C169A U176A | 0.0153
47 | C82A A111C A120C A145G C150G C169A U176G | 0.00798
48 | C82A A111C A120C A145G C150G C169A U176C | 0.0121
49 | C82A A111C A120C C169A U176A | 0.0163
50 | C82A A111C A120C C169A U176G | 0.00712
51 | C82A A111C A120C C169A U176C | 0.0179
52 | C82A A111C A120C C150A C169A U176A | 0.0196
53 | C82A A111C A120C C150A C169A U176G | 0.00827
54 | C82A A111C A120C C150A C169A U176C | 0.0181
55 | C82A A111C A120C A145G U176C | 0.0274
56 | C82A A111C A120C A145G U176A | 0.0152
57 | C82A A111C A120C A145G U176G | 0.00691
58 | C82A A111C A120C A145G C150U C169G | 0.00829
59 | C82A A111C A120C A145G C150U C169U | 0.0133
60 | C82A A111C A120C A145G C150U C169A | 0.0108
61 | C82A A111C A120C A145G C169U U176A | 0.0165
62 | C82A A111C A120C A145G C169U U176G | 0.00652
63 | C82A A111C A120C A145G C169U U176C | 0.0138

Row | Variant | reverse-splicing fitness
64 | C82A A111C A120C C150U C169U U176G | 0.0075
65 | C82A A111C A120C C150U C169U U176A | 0.0177
66 | C82A A111C A120C C150U C169U U176C | 0.0139
67 | C82A A111C A120C A145U C150A C169U U176C | 0.0143
68 | C82A A111C A120C A145U C150A C169U U176G | 0.00918
69 | C82A A111C A120C A145U C150A C169U U176A | 0.014
70 | C82A A111C A120G | 0.0149
71 | C82A A111C A120C | 0.0246
72 | C82A A111C A120C C150U C169G U176A | 0.0139
73 | C82A A111C A120C C150U C169G U176G | 0.00721
74 | C82A A111C A120C C150U C169G U176C | 0.016
75 | C82A A111C A120G A145G C150A | 0.00888
76 | C82A A111C A120C C150G C169U U176C | 0.0102
77 | C82A A111C A120C C150G C169U U176A | 0.00611
78 | C82A A111C A120C C150G C169U U176G | 0.00771
79 | C82A A111C A120C C150G C169G | 0.00682
80 | C82A A111C A120C C150G C169A | 0.00831
81 | C82A A111C A120C C150G C169U | 0.0115
82 | C82A A111C A120G A145C C150G U176G | 0.00311
83 | C82A A111C A120G A145C C150G U176A | 0.00683
84 | C82A A111C A120G A145C C150G U176C | 0.0141
